Measured values from the nanobody polyreactivity screen of Harvey et al. (2022).

Assay: yeast display, Sf9 membrane polyspecificity reagent, FACS + sequencing; frameworks hold sequencing errors
Summary of the method: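 Polyreactivity labels are assigned by the sorting gate from which each nanobody was recovered. The gates were low and high (top ~1%), set on anti-HA fluorescence for expression and streptavidin fluorescence for reagent binding. Before sorting, galactose-induced (36–48 hours) yeast display cells were stained for 1 hour at 4 °C with 10% biotinylated, detergent-solubilized Sf9 membrane reagent.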

Row | Sequence | polyreactivity (PSR sort gate)
1 | QDQLVESGGGLVQAGGSLRLSCAASGFISRKNAMGWSRQAPGKERELVATITKSGDTTYYADSVKGRFTISRDNAKNTVYLQMNSLKPEDTAVYYCAAPLYYIGSWDYYVRYIYDYWGQGTQVTVSS | low polyreactivity
2 | QDQLVESGGGLVQAGGSLRLSCAASGFNFDRYAMGWYRQAPGKERELVAAISRRGGSTYYADSVKGRFTISRDNAKNTVYLQMNSQKPEDTAVYYCAASRPSPRPRYGYWGQGTQVTVSS | high polyreactivity
3 | QDQLVESGGGLVQAGGSLRLSCAASGFNFDSYAMRWYIQAPGKERELVAAMSWSGSSTYSADSVKGRFTISRDNAKNTGYLQMNSLKPEDTAVYYCAALVYPYWGGSMYYWGQGTQVTVSS | high polyreactivity
4 | QDQLVESGGGLVQAGGSLRLSCAASGFNFSPNAMGWYRQAPGKERELVAAIDWSGDRTYYADSVKGRFTISRDNAKNTVYLEMNSLKPEDTSVYYCNVVRRSTGEYSFYYWGQGTQVTVSS | low polyreactivity
5 | QDQLVESGGGLVQAGGSLRLSCAASGFTFAANAMGWSRQAPGKERELVAAISSDSTYADSVKGRFTISRDNAKNTVYLQLNSLKPEDTAVYYCAKDRYIVNSPGLDYWGQGTQVTVSS | low polyreactivity
6 | QDQLVESGGGLVQAGGSLRLSCAASGFTFGRYAMGWYRQAPGKERELVATITRTGSTNYADSVKGRFTISRDNAKNTVDLQMHSLKPEDTAVYYCNAVYSGWRYVKYDYWGPGTQVTVSS | low polyreactivity
7 | QDQLVESGGGLVQAGGSLRLSCAASGFTFGYYAMGWYRQAPGKERELVAAISTRGTSTYYADSVKGRFTISRDNAKNTVYLQMNSLKPEDTAVYYCARDKATDHGYNEFDYWGQGTQVTVSS | low polyreactivity
8 | QDQLVESGGGLVQAGGSLRLSCAASGFTFGYYPMGWSRQAPGKERELVAAITSSGGRTYYADSVKGRFTISRDYGKNTVYLQMNSLKPEDTAVYYCATAYRPDYGYWGQGTQVTRSS | high polyreactivity
9 | QDQLVESGGGLVQAGGSLRLSCAASGFTFNTYAMGWNRQAPGKERELVDAISKSGTRTYYADSVKGRFTISRDNAKNTVYLQMKSLKPEVTAVYYCAAEALYYYRLGWVYLRYDYWGQGTQVTVSS | high polyreactivity
10 | QDQLVESGGGLVQAGGSLRLSCAASGFTFTIYAMGGYRQAPGKEREFVAAISYTDGSTFYVDSVKGRFTISRDYAKNTVYLQMTSLKPEDTAVYYCAKDRPGWVHRRPTGGFDYWGQGTQVTVSS | low polyreactivity
11 | QDQLVESGGGLVQAGGSLRLSCAASGFTFYPYAMGWYRQAPGKERELVAAITYIGSTYYADSVKGRFTISRDNAKNTVYLQMNSLKPEDTAVYYCAAVKVFLGLGYDYWGQGTQVTVSS | low polyreactivity
12 | QDQLVESGGGLVQAGGSLRLSCAASGFTYEKYAMGSYRTAPGKERELVASISWSGGRTRYADSVMGRFTISRDNAKNTVYLQMNSLKPEDTAVYYCAARGAYKSAYNRNEYWGQGTQVTVSS | high polyreactivity
13 | QDQLVESGGGLVQAGGSLRLSCAASGGIFFIYVMGWYRQAPGKERELVAAISGSGGTTYYADSVKGRFTISRDNAKNTVYLQMNSLKPEDTAVFYCNRVSDYTLYYWGQGTQVTVSS | low polyreactivity
14 | QDQLVESGGGLVQAGGSLRLSCAASGGTFKFYAMGWYRQAPGKERELVAAITSGGSTSYADSVKGRFTISRDNAKNTVYLQMNSLKPEDTAVYYCNADFYQRYGVFSSRRYYYWGQGTQVTVSS | high polyreactivity
15 | QDQLVESGGGLVQAGGSLRLSCAASGGTFPEYALGWYRQAPGKERELLAAIRTDGRTYYADSVKGRFTISRDNAKNTVYLQMNSLKPEDTAVYYCAADSRYSRPYTWRKAYDYLGQGTQVTVSS | low polyreactivity
16 | QDQLVESGGGLVQAGGSLRLSCAASGGTFTVYAMGWYRQAPGKERELVATINWSRGSTYYADSVKGRFTISRDNAKNTVYLQMKSLKPEDNAVYYCNAAWQYKSVEYWGQGTQVTVSS | low polyreactivity

Row | Sequence | polyreactivity (PSR sort gate)
17 | QDQLVESGGGLVQAGGSLRLSCAASGIIFARYAMGWSRPAPGKERELVAAITSGGGSTYYADSVKGRFTISRDNAMNTVYLQMYSLKPEDTAVYYCAADYQTIGWGYDYWGQGTQVTVSS | low polyreactivity
18 | QDQLVESGGGLVQAGGSLRLSCAASGIIFKFNVMGWYRQAPGKERELVAAISTGGSTYYADSVKGRFTISRDNAKNTVYLQMNSLKPEDTAVYYCNAVSPLSIWSSRDGWYGYWGQGTQVTVSS | high polyreactivity
19 | QDQLVESGGGLVQAGGSLRLSCAASGIIFYRYAMGWYRQAPGKERELVAAITWSGVSTSYADSVKGRFTISRDNAKNTVYLQMNSLKPEDTAVYYCNKDPGTLYGDMDSWGQGTQVTVSS | low polyreactivity
20 | QDQLVESGGGLVQAGGSLRLSCAASGIIIVAYAMGWYRQAPGKERELVAAITVSGARTYYADSVKGRFTISRDNAKITVYFQMNSLKPEDTAVYYCAARYAGGGVLGHGYWGQGTQVTVSS | high polyreactivity
21 | QDQLVESGGGLVQAGGSLRLSCAASGIILPRYAMGWYRQAPGKERELVAAISRGGGTYYADSVKGRFTISRDNAKNSVYLQMNSLKPEDTAFYYCDAAYVFVGSSHYYWGQGTQVTVSS | high polyreactivity
22 | QDQLVESGGGLVQAGGSLRLSCAASGINFKYYAMGWYRQAPGKERELVAAISRSGSSTYYADSVKGRFTISRDNAKNTVYLQMNSLIPEDTSVYYCADQPYDSNYGNSGYWGQGTQVTVSS | high polyreactivity
23 | QDQLVESGGGLVQAGGSLRLSCAASGITFPKYAMGWYRQAPGKERELVAAITKSGGSTYYADSVKGRFTISRDNAKNTVYLQMNSLKPEVTAVYYCAARPRYGEYDYWGQGTQVTVSS | high polyreactivity
24 | QDQLVESGGGLVQAGGSLRLSCAASGITLFYYAMGWYRQAPGKERELVAVISASGGSTYYADSVKGRFTISRDNAKNTVYLQMNSLKQEDTAVYYCAAVAYWRSSSWYYYWGLGTQVTVSS | high polyreactivity
25 | QDQLVESGGGLVQAGGSLRLSCAASGLIFGGYDMGWYRQAPGKERELVAAISCDDGDTYYADSVKGRFTISRDNAKNTVYLQMNSLKPEDTAVYYCAAESLSGAHGYWGQGTQVTVSS | low polyreactivity
26 | QDQLVESGGGLVQAGGSLRLSCAASGLIFRHYAMGWSRQAPGKERELVAAITWSGGSTYYADSVKGRFTISRDNAKNTVYLQMNSLKAEDTAVYYCAAEGTGYSVGWQYGYWGQGTQVTVSS | low polyreactivity
27 | QDQLVESGGGLVQAGGSLRLSCAASGLIFVGYALGGYRQAPGKERELVAAITSGGSTKYADSVKGRFTSSRDNAKNTVYLQMNSLKPEDTAVYYCAASGWRNWWSARNYYWGQGTQVTVSS | high polyreactivity
28 | QDQLVESGGGLVQAGGSLRLSCAASGLISSINAMGWYRQAPGKERELVAAISFSGGRTYYADSVKGRFTISRDNAKNTVYLQMNSLKPEDTAVYYFNAVSGGHRSRYGYWGQGTLVTVSS | high polyreactivity
29 | QDQLVESGGGLVQAGGSLRLSCAASGLTFFYYAMGWSRQSPGKERELVAAISRGGSTYYADSVKGRFTISRDHAKYTVYLQMKSLNPEDTAVYYCAAKTYQKEIVRPMYYWGQGTQVTVSS | high polyreactivity
30 | QDQLVESGGGLVQAGGSLRLSCAASGLTFGRYAMGWYRQAPGKERELVAAITWNGDGTYYADSVKGRFTISRDNAKNTVYLQMNSQKPEDSAVFYCAADYYTYLYGRYNYWGQGTQVTVSS | low polyreactivity
31 | QDQLVESGGGLVQAGGSLRLSCAASGLTFGYYAMGWYRQAPGKERELVAAINSGGSTYYADSVKGRFTISRDNAKNTVYFQMNSLKPEDTAVYYCNATLDLYDSVSYTGPGMDYWGQGTQVTVSS | low polyreactivity
